Article PMC8956589, “Crystal structure of progeria mutant S143F lamin A/C reveals increased hydrophobicity driving nuclear deformation” (Communications Biology, 2022)
Changes are numbered by the printed parent chain. In names and notes the source's numbering stands.

B1: wild-type lamin A/C fragment (residues 1–300) (domain or fragment, human, UniProt P02545 1-300, looked up)
chain: METPSQRRATRSGAQASSTPLSPTRITRLQEKEDLQELNDRLAVYIDRVRSLETENAGLRLRITESEEVVSREVSGIKAAYEAELGDARKTLDSVAKERARLQLELSKVREEFKELKARNTKKEGDLIAAQARLKDLEALLNSKEAALSTALSEKRTLEGELHDLRGQVAKLEAALGEAKKQLQDEMLRRVDAENRLQTMKEELDFQKNIYSEELRETKRRHETRLVEIDNGKQREFESRLADALQELRAQHEDQVEQYKKELEKTYSAKLDNARQSAERNSNLVGAAHEELQQSRIRID
notes: human lamin A/C, residues 1-300 (head, coil 1a, L1, coil 1b, L12 and part of coil 2); Dimer by SEC-MALS; The vector pProEx-HTa is named for the S143F construct; also called lamin 300 fragment; wild-type lamin 300 fragment; source: E. coli, purified (cobalt-Talon, TEV cleavage, HiTrap Q, SEC)
B2: S143F mutant lamin A/C fragment (residues 1–300) (domain or fragment, human, UniProt P02545 1-300, looked up)
chain: B1 chain with S143F
notes: human lamin A/C, residues 1-300, with the disease mutation S143F (a genetic mutation found in patients); Vector pProEx-HTa; Ordered in the crystal: residues 29-229 and 31-229; also called S143F mutant lamin 300 fragment; Lamin S143F (residues 1–300); source: E. coli BL21 (DE3) or B834 (DE3), purified (cobalt-Talon, TEV cleavage, HiTrap Q, SEC)
B3: hexaHis-tagged lamin fragment (residues 250–400) (domain or fragment, human, UniProt P02545 250-400, looked up)
chain: AQHEDQVEQYKKELEKTYSAKLDNARQSAERNSNLVGAAHEELQQSRIRIDSLSAQLSQLQKQLAAKEAKLRDLEDSLARERDTSRRLLAEKEREMAEMRARMQQQLDEYQELLDIKLALDMEIHAYRKLLEGEEERLRLSPSPTSQRSRG
notes: human lamin A/C, residues 250-400 (C-terminal fragment of coil 2); also called His-lamin 2 C fragment; lamin 2 C fragment; source: E. coli, purified

Experiments:
[1] = molecular target: the molecule itself; assay: SEC-MALS; 2 mg/mL sample on Superdex 200 Increase 10/300 GL, 20 mM Tris-HCl (pH 7.5), 150 mM NaCl
[2] = molecular target: B1; assay: pull-down; hexaHis-tagged lamin 250–400 immobilised on Ni-NTA resin as bait, tagless lamin 300 fragments as prey; 20 mM Tris-HCl (pH 8.0), 50 mM or 150 mM NaCl, 20 mM imidazole in the wash, room temperature, 30 min; SDS-PAGE; settings: both partners purified
[3] = molecular target: B2; assay: as above; settings: both partners purified

B1 was tested, and the “stoichiometry N” value [1] was 2.

For B2, the “stoichiometry N” value [1] was 2.

B3: binds [2]; binds [3].
